Results from patent US20250092148A1 (Kyowa Kirin, published 2025).

Key:
Experiment in all cases: flow cytometry, Fab on HEK-293T cells expressing the mutant; labels of this column stand one row too low, mutant assigned after shifting them up
[1] = target: T1, human CD131 H147A (human, UniProt P32927 17-897)
T1 construct: whole, on cells
T1 sequence (looked up): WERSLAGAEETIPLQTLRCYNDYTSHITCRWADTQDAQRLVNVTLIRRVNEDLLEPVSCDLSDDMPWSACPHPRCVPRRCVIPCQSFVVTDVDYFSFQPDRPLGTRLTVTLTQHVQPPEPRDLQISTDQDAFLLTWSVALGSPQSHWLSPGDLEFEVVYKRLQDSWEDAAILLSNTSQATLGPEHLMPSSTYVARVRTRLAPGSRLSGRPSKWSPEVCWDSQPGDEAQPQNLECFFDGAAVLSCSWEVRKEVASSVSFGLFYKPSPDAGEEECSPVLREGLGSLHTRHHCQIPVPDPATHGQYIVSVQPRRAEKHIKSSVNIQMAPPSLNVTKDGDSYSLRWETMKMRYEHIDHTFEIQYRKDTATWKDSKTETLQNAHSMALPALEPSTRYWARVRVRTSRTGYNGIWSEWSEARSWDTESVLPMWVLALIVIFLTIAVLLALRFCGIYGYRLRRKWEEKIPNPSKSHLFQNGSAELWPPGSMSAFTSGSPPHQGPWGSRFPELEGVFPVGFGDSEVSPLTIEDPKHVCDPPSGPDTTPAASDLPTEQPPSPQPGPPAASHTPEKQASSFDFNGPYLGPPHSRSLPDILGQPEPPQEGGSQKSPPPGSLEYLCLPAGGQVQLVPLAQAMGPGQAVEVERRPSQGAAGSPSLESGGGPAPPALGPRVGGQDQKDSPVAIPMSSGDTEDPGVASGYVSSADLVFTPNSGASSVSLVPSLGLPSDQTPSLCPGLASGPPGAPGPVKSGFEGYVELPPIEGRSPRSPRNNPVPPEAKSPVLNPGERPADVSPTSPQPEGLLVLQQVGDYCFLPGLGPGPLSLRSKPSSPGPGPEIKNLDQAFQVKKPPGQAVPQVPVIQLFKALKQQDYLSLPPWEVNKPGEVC

[2] = target: T2, human CD131 D144A (human, UniProt P32927 17-897)
T2 construct: whole, on cells
T2 sequence (looked up): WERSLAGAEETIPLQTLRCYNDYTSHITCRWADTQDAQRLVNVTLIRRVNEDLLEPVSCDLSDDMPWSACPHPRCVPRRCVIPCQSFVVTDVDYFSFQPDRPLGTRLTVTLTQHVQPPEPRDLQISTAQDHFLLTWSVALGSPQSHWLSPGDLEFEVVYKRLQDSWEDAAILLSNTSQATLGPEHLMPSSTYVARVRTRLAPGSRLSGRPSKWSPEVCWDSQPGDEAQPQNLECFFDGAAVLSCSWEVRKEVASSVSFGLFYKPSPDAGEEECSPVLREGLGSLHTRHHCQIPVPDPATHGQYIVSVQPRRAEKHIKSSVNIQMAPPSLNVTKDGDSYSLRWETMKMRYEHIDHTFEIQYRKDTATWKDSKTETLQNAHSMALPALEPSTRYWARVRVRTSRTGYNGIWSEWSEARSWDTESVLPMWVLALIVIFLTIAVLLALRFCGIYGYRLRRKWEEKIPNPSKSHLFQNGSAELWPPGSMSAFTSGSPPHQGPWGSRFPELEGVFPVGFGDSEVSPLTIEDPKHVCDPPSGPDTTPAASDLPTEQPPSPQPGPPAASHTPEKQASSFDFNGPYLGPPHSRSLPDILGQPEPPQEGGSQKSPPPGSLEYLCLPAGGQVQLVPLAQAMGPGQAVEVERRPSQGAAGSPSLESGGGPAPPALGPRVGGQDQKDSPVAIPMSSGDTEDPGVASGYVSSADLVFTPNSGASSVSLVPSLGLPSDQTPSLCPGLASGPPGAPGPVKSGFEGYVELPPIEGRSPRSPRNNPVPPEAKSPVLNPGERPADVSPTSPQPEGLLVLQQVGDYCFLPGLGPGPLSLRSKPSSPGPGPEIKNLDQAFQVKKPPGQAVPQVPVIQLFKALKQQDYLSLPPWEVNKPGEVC

[3] = target: T3, human CD131 G198A (human, UniProt P32927 17-897)
T3 construct: whole, on cells
T3 sequence (looked up): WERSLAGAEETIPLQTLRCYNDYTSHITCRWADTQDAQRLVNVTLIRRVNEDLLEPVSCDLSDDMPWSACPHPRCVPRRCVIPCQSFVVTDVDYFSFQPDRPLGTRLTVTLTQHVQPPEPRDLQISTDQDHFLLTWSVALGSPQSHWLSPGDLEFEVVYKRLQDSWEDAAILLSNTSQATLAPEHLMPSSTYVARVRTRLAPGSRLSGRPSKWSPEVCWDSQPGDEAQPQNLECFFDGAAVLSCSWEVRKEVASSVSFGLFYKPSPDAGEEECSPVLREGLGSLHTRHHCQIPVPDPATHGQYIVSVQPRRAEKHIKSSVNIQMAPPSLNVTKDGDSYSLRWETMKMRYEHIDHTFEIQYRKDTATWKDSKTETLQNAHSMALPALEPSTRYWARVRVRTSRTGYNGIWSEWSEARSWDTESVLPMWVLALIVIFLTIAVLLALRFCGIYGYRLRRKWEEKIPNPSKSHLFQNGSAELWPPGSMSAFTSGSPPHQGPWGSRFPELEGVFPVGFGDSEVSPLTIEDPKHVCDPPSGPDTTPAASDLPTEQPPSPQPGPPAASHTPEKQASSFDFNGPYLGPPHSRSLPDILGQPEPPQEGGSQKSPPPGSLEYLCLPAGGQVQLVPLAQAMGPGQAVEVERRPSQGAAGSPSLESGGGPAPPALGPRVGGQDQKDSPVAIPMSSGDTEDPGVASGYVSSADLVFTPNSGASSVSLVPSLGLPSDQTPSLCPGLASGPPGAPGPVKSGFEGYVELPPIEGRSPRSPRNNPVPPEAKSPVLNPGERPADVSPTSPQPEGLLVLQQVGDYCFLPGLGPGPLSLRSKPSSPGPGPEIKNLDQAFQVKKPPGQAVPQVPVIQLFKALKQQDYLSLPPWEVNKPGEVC

Binding Reactivity (% WT) [1]: 110 % WT | Binding Reactivity (% WT) [2]: 129 % WT | Binding Reactivity (% WT) [3]: 194 % WT
B1: anti-CD131 antibody 131-B2, Fab (Fab, V domains shown)
VH: QVQLVQSGAEVKEPGASVKISCKASGYTFTNDYMHWVRQAPGQGLEWMGIINPTGGGTSYAQKFRGRVTMTRDTSTSTVYMELSSLRSEDTAVFYCARERYYGSGTYFNIGLWYFDLWGRGTLVTVSS
VL: not shown
notes: Fab made from the antibody by an enzyme treatment
